From the RNAGym collection of RNA variant scans (doi:10.7554/elife.90254) come the findings set out here.

B1: OR4K15 (parent)
chain: GUUAACGGUCAUAGGCCAUGGAAACUAGGAGCACCAUUUCGCUGCCAGUGAAGAAAUGAACAAAGAAAAUCUGGGCCAGGCAGGCAUCAAAAGAAAUAGUCUUGCGCUCAACCAGAAAGUCUGUAAUCAUUUUAAGGGUA

The variants in this data set derive from B1. In words: self-cleavage, relative activity (ratio to wild type); higher = more cleavage; in vitro, sequencing; the parent is a self-cleaving ribozyme.
As for A86G A111U, the self-cleavage is 0.11.

As to U3C A52G, the self-cleavage turned out to be 1.1.

Take G29A A78G: the self-cleavage was 0.28.

In the case of G41C A66U, the self-cleavage worked out at 1.25.

As for U57A A62G, the self-cleavage came out at 1.13.

Regarding U19C U120C, the self-cleavage was determined as 0.77.

On to G74A U124A, for which the self-cleavage amounted to 0.1.

Turning to U49A A86G, the self-cleavage was found to be 1.19.

On to U9C A114G, for which the self-cleavage was determined as 0.64.

A64U A86G: the self-cleavage was determined as 1.85.

With G7U U70A, the self-cleavage came to 1.27.

In the case of A90G A125G, the self-cleavage turned out to be 0.23.

Take U102A U120A: the self-cleavage came to 1.01.

For the variant U97G A98G, the self-cleavage turned out to be 1.98.

On to A86C C109U, for which the self-cleavage was 0.25.

Turning to U87A G137A, the self-cleavage was 1.96.

Consider A5G C113U, for which the self-cleavage was found to be 0.16.

With U9C A66G, the self-cleavage amounted to 0.9.

Regarding C40G A94G, the self-cleavage amounted to 0.63.

On to U87C C109U, for which the self-cleavage was determined as 0.43.

Regarding U12C, the self-cleavage amounted to 1.01.

Turning to U39C A129G, the self-cleavage amounted to 1.7.

For A129C U132C, the self-cleavage stood at 0.98.

With A62U A66G, the self-cleavage was found to be 1.58.

As for A118U U122A, the self-cleavage was found to be 1.08.

Regarding U72A A98U, the self-cleavage came to 0.33.

Take A23C C76A: the self-cleavage amounted to 0.13.

On to U127C U131C, for which the self-cleavage came out at 0.51.

C16U A27G: the self-cleavage amounted to 0.94.

Regarding G8A C77U, the self-cleavage was 1.72.

As for U43A U70C, the self-cleavage worked out at 0.98.

Turning to A51C A78G, the self-cleavage was 0.24.

On to A82C A90G, for which the self-cleavage was 0.15.

C61A: the self-cleavage was determined as 1.82.

Regarding G41A A126G, the self-cleavage turned out to be 1.48.

As to A98G G138U, the self-cleavage was 0.6.

For the variant U19C A59G, the self-cleavage is 1.55.

A96G A114U: the self-cleavage came out at 0.07.

In the case of C25U A54U, the self-cleavage amounted to 1.33.

Consider A54G A140G, for which the self-cleavage worked out at 2.22.

G21U G65A: the self-cleavage was 1.96.

For the variant U12C A114G, the self-cleavage came out at 0.19.

Turning to A5U A66G, the self-cleavage was 1.27.

For the variant A47G U120A, the self-cleavage was found to be 1.21.

As for C109U A117G, the self-cleavage was 0.44.

Turning to A91U A94U, the self-cleavage turned out to be 1.87.

With A55G C109U, the self-cleavage was 0.82.

For the variant U3C A62G, the self-cleavage came to 0.96.

For the variant A59G A116C, the self-cleavage stood at 0.07.

For A67G G84U, the self-cleavage worked out at 0.35.

Turning to A36G A66U, the self-cleavage is 2.4.

On to A51U U130A, for which the self-cleavage turned out to be 1.4.

Regarding C32U U38C, the self-cleavage came to 1.02.

With A86G A114G, the self-cleavage came to 0.48.

Take A13G U87C: the self-cleavage was determined as 1.5.

U49A U72G: the self-cleavage was determined as 0.14.

As for A52U A134U, the self-cleavage is 1.41.

In the case of G20A A91U, the self-cleavage was 2.07.

In the case of C34A U57C, the self-cleavage was determined as 1.31.

Regarding A23G G50U, the self-cleavage worked out at 0.79.

For A11G, the self-cleavage was 0.77.

A5G U139C: the self-cleavage came to 1.1.

With A36G, the self-cleavage turned out to be 1.39.

As for U120C C128A, the self-cleavage turned out to be 0.69.

On to U2C U43C, for which the self-cleavage came out at 1.57.

For the variant U57C U103C, the self-cleavage was 0.86.

On to A91U A92G, for which the self-cleavage was determined as 1.04.

In the case of A47U U100C, the self-cleavage stood at 2.2.

Regarding U9C A110G, the self-cleavage was 0.15.

Regarding G93A, the self-cleavage amounted to 2.17.

As for U43G A134G, the self-cleavage is 0.89.

Turning to A55G U130A, the self-cleavage is 0.52.

With A30U C77U, the self-cleavage turned out to be 1.77.

Take A4G A36U: the self-cleavage stood at 0.79.

For U57C U124C, the self-cleavage was 0.59.

With A78G U100A, the self-cleavage amounted to 0.04.

Take A27U A63G: the self-cleavage is 2.61.

Turning to A13G A94G, the self-cleavage came to 0.6.

As to A78C U130C, the self-cleavage turned out to be 0.21.

Turning to C6U A56G, the self-cleavage came to 0.64.

For U87A U122C, the self-cleavage turned out to be 1.28.

With A11G C88U, the self-cleavage is 1.54.

U19A U131G: the self-cleavage was determined as 2.03.

For the variant G84U A110U, the self-cleavage was found to be 0.44.

As for A69G A96C, the self-cleavage was found to be 1.58.

Take A59U A96G: the self-cleavage came out at 1.87.

For the variant C10A A90G, the self-cleavage worked out at 1.02.

On to A18U A55G, for which the self-cleavage amounted to 1.85.

Consider G15A A116G, for which the self-cleavage was determined as 0.52.

For U49A A64G, the self-cleavage stood at 1.2.

Take U132C G138U: the self-cleavage is 1.54.

As for U57C U120C, the self-cleavage came out at 0.41.

As to C40U U108A, the self-cleavage was 0.01.

With A18G U70C, the self-cleavage came out at 0.57.

For U9C G80A, the self-cleavage was determined as 0.34.

In the case of A67G C121A, the self-cleavage is 2.73.

Consider A60G U132C, for which the self-cleavage came to 1.07.

As to A60C, the self-cleavage amounted to 1.7.

As for A78G U122A, the self-cleavage was found to be 0.13.

With G79A A129G, the self-cleavage came out at 0.17.

A86C: the self-cleavage stood at 1.22.

On to A86C U102C, for which the self-cleavage was determined as 1.29.

Turning to C6U A116G, the self-cleavage came to 0.34.

As for A23G U97C, the self-cleavage worked out at 0.8.

Turning to A27U U39C, the self-cleavage worked out at 0.93.

In the case of A47U U132A, the self-cleavage amounted to 0.51.

On to U37A A62G, for which the self-cleavage is 1.37.

Regarding A52G U97G, the self-cleavage was 1.31.

Regarding A51U A52U, the self-cleavage was 1.99.

With U43A A47U, the self-cleavage is 1.13.

For A22G A23G, the self-cleavage turned out to be 1.09.

Take U124C U131C: the self-cleavage is 0.8.

Regarding A59U A60G, the self-cleavage was 1.32.

On to C6A U49C, for which the self-cleavage came to 0.74.

On to G48U, for which the self-cleavage came to 1.61.

Take U43C U108C: the self-cleavage came out at 0.02.

Consider A11G A90G, for which the self-cleavage worked out at 1.04.

With G80A A96G, the self-cleavage was found to be 0.18.

For the variant A24C A63G, the self-cleavage is 1.94.

With U39C G104A, the self-cleavage worked out at 0.03.

Turning to A92G G106U, the self-cleavage was determined as 0.01.

Take A62G C88G: the self-cleavage amounted to 1.14.

As to U12C G99A, the self-cleavage came out at 0.97.

Turning to A54U A125G, the self-cleavage amounted to 0.83.

C40A U108A: the self-cleavage amounted to 0.

For the variant A13U A90U, the self-cleavage was determined as 1.8.

As for A55G A116U, the self-cleavage came out at 0.27.

With A23U G29A, the self-cleavage turned out to be 2.77.

On to C6U A11U, for which the self-cleavage worked out at 1.34.

In the case of A33G G53C, the self-cleavage was found to be 0.81.

As to A33G A126G, the self-cleavage is 0.7.

On to A51G U120G, for which the self-cleavage worked out at 2.37.

For A18G A24C, the self-cleavage worked out at 0.96.

Regarding G79A U139C, the self-cleavage amounted to 0.11.

In the case of U72A A94U, the self-cleavage was determined as 0.37.

For G7A G74U, the self-cleavage is 0.2.

With C6A A117G, the self-cleavage worked out at 0.6.

On to A62C A78C, for which the self-cleavage was found to be 0.31.

Take A64G A110C: the self-cleavage was 0.36.

For G80U A86U, the self-cleavage worked out at 0.23.

Take G1U A92G: the self-cleavage was found to be 1.91.

U2C A13U: the self-cleavage amounted to 1.78.

On to U39A A129C, for which the self-cleavage amounted to 1.24.

In the case of A52G G74A, the self-cleavage worked out at 0.13.

Turning to A54U U102C, the self-cleavage was determined as 1.59.

Regarding U49C A114C, the self-cleavage is 0.03.

Take A68G G79U: the self-cleavage was found to be 0.07.

For U43A U49C, the self-cleavage came out at 1.49.

On to G75C U130C, for which the self-cleavage was 0.08.

In the case of U38A U108C, the self-cleavage is 0.01.

On to A22G A96G, for which the self-cleavage stood at 1.28.

On to A36G A118C, for which the self-cleavage stood at 1.46.

As to A36G A118U, the self-cleavage turned out to be 0.73.

As for A86G A140G, the self-cleavage was found to be 0.77.

As to G79U U87C, the self-cleavage worked out at 0.11.

Turning to A91G A94G, the self-cleavage amounted to 0.83.

U97C U132C: the self-cleavage was 1.45.

With A11U U133C, the self-cleavage was 1.36.

With A23G A24G, the self-cleavage was 1.03.

As to A11U U100A, the self-cleavage turned out to be 0.62.

Regarding C25U U102A, the self-cleavage turned out to be 0.79.

In the case of U39C A56C, the self-cleavage amounted to 0.43.

On to U37C U72A, for which the self-cleavage worked out at 0.51.

Regarding G15A A47G, the self-cleavage stood at 1.33.

Consider U2C A69G, for which the self-cleavage worked out at 0.91.

Turning to A89U U133C, the self-cleavage is 1.97.

In the case of A13G U57C, the self-cleavage came to 1.18.
